The series deals with the molecule itself. Briefly: phase separation.

B1: FUS low complexity N-terminal domain (residues 1-163) (domain or fragment, human, UniProt P35637 1-163, looked up)
chain: MASNDYTQQATQSYGAYPTQPGQGYSQQSSQPYGQQSYSGYSQSTDTSGYGQSSYSSYGQSQNTGYGTQSTPQGYGSTGGYGSSQSSQSSYGQQSSYPGYGQQPAPSSTSGSYGSSSQSSSYGQPQSGSYSQQPSYGGQQQSYGQQQSYNPPQGYGQQNQYNS
As to B1, the binding result is “binds”.

The values are drawn from PMC4609301 (Molecular cell, 2015).
